Test results as given in publication PMC12041854, “CARM1/PRMT4 facilitates XPF–ERCC1 heterodimer assembly and maintains nucleotide excision repair activity” (Nucleic Acids Research, 2025).

Columns and labels:
Test in all cases: pull-down; in vitro translated and purified XPF WT-Myc or R568K-Myc, with or without in vitro methylation by CARM1-FLAG beads (1 mM S-adenosylmethionine, 50 mM Tris-HCl pH 8.0, 10 mM DTT, 3 h at 30°C), then pulled down with GST-ERCC1; western blot
Conditions in all cases: both partners purified
[1] = molecular target: T1, in vitro translated XPF WT-Myc (human, UniProt Q92889 1-916)
T1 construct: XPF (xeroderma pigmentosum group F protein), human; source: in vitro translated (wheat germ cell-free system, pEU-E01-MCS); used as reaction mixture, and purified (Ni-NTA, anti-Myc magnetic beads, Myc peptide elution)
T1 sequence: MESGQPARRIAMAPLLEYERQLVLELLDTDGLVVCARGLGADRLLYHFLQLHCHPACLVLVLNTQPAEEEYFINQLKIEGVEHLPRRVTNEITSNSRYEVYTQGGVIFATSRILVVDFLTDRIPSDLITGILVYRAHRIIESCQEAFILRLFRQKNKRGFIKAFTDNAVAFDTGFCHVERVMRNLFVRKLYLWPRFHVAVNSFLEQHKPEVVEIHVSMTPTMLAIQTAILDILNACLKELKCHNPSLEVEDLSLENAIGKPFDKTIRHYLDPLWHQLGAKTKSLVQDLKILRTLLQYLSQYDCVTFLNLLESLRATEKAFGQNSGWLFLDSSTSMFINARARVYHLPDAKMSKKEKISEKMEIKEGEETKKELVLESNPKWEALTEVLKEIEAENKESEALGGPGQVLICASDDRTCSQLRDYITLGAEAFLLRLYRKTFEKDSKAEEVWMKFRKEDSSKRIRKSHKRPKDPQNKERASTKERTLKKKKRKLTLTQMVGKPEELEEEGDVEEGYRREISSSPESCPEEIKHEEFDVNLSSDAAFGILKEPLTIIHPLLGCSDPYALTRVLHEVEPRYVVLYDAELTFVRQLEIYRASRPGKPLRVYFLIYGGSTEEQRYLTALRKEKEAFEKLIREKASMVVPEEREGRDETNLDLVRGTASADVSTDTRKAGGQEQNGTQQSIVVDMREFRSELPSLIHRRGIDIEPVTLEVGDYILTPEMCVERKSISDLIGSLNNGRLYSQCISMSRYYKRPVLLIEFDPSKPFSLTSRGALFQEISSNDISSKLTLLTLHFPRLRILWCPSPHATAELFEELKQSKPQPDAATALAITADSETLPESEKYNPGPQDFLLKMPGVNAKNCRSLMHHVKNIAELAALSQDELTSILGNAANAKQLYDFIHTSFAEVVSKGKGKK

[2] = molecular target: T2, in vitro translated XPF R568K-Myc (human, UniProt Q92889 1-916, R568K)
T2 construct: also called RK; source: in vitro translated (wheat germ cell-free system); used as reaction mixture, and purified (Ni-NTA, anti-Myc magnetic beads, Myc peptide elution)
T2 sequence: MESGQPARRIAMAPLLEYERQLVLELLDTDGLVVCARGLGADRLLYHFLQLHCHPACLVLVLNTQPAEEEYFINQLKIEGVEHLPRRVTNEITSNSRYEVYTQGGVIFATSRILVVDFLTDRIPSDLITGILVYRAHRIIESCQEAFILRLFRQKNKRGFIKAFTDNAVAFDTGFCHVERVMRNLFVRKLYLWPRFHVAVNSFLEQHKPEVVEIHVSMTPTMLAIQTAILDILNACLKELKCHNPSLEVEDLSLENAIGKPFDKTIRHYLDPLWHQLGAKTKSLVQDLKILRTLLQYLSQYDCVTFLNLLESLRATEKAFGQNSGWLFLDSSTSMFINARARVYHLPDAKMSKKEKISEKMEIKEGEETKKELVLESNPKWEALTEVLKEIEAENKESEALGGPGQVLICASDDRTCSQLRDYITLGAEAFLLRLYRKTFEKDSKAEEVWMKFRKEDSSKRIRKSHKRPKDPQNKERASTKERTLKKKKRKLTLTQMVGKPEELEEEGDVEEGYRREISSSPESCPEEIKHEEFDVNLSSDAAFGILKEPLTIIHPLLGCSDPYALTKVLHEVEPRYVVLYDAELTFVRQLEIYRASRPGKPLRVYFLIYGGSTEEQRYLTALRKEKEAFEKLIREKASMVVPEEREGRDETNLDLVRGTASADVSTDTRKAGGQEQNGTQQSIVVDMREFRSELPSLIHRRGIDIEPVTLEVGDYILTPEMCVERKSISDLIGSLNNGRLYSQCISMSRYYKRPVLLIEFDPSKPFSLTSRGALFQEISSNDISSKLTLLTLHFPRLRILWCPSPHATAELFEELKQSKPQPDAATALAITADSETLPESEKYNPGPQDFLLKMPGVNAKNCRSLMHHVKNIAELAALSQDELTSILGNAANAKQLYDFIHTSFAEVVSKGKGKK

[3] = molecular target: T3, XPF WT-Myc after CARM1-mediated methylation (human, UniProt Q92889 1-916, arginine methylation by CARM1 in vitro; the paper names R568 as the site whose methylation promotes binding to ERCC1)
T3 construct: XPF (xeroderma pigmentosum group F protein), human; also called methylated XPF WT-Myc
T3 sequence: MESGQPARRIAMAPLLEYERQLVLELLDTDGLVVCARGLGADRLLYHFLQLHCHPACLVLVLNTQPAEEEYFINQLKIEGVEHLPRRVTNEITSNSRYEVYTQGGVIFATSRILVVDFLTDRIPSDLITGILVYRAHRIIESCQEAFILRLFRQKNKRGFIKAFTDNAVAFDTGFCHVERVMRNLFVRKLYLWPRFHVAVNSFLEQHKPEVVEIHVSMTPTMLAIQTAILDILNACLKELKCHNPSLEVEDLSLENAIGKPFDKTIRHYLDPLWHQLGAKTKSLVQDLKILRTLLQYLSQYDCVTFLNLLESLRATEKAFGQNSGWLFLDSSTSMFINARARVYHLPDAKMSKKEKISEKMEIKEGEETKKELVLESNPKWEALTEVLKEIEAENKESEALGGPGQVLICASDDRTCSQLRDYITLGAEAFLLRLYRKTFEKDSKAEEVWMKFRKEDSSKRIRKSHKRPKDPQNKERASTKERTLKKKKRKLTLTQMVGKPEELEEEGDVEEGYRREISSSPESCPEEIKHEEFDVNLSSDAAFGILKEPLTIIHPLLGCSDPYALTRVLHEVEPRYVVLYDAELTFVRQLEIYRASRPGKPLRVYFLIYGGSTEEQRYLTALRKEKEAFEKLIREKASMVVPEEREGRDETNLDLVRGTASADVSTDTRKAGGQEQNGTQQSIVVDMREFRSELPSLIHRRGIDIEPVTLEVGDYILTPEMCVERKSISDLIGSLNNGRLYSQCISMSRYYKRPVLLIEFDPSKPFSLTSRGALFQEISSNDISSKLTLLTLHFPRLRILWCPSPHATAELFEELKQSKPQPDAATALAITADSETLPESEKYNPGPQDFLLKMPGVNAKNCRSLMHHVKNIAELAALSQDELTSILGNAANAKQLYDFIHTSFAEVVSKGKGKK

[4] = molecular target: T4, XPF R568K-Myc after the in vitro methylation assay with CARM1 (human, UniProt Q92889 1-916, R568K, subjected to the in vitro methylation assay with CARM1; methylated residues not stated)
T4 construct: also called R568K-Myc mutant after methylation assay
T4 sequence: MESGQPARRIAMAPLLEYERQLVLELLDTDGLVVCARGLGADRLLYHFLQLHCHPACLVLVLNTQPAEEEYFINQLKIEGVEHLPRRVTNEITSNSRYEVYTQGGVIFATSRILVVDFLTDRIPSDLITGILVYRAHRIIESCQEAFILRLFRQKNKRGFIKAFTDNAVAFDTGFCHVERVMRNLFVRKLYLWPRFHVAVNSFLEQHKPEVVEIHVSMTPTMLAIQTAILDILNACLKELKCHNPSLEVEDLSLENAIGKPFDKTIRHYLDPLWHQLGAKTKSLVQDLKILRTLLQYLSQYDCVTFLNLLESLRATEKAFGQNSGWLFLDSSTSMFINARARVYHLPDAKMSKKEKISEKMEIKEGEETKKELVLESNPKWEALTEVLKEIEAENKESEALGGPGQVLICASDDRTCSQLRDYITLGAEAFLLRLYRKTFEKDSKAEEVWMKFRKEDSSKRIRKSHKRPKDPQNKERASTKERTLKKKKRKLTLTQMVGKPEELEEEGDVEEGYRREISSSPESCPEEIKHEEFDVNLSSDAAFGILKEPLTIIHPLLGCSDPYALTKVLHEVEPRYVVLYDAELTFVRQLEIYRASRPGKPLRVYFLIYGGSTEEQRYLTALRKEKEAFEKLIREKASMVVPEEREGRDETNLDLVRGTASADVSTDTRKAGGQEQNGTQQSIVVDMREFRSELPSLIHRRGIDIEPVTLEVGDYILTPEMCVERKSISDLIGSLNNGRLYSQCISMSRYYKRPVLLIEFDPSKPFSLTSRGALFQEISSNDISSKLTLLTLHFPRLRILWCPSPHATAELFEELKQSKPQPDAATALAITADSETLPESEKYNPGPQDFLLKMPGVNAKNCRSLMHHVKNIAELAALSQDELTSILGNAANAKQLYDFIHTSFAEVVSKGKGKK

Measured: binding result

B1: GST-ERCC1 (natural protein, human)
chain: MDPGKDKEGVPQPSGPPARKKFVIPLDEDEVPPGVAKPLFRSTQSLPTVDTSAQAAPQTYAEYAISQPLEGAGATCPTGSEPLAGETPNQALKPGAKSNSIIVSPRQRGNPVLKFVRNVPWEFGDVIPDYVLGQSTCALFLSLRYHNLHPDYIHGRLQSLGKNFALRVLLVQVDVKDPQQALKELAKMCILADCTLILAWSPEEAGRYLETYKAYEQKPADLLMEKLEQDFVSRVTECLTTVKSVNKTDSQTLLTTFGSLEQLIAASREDLALCPGLGPQKARRLFDVLHEPFLKVP
notes: ERCC1 (excision repair cross-complementation group 1), human; also called E1; excision repair cross-complementation group 1; source: E. coli BL21 (pGEX 4T-3), purified (glutathione beads)
binds: [1] | [2] | [3] | [4]
